B1: TPR t1 (parent)
chain: GACCAAUCUGCCCUCAGAGCUCGAGAACAUCUUCGGAUGCAGAGGAGGCAGGCUUCGGUGGCGCGAUAGCGCCAACGUCCUCAACCUCCAAUGCAUCCCACCACAUGAUGAUGCCUGAAGAGCCUUGGUUUUUUG

Variants of: B1
Assay: polymerase ribozyme fitness, log enrichment relative to wild type (log ratio); higher = more active; in vitro selection for triplet polymerase activity
Summary of the method: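 Streptavidin-bead capture of gel-excised extended constructs, followed by RT-PCR, closed a single triplicate in vitro selection round. That round began by annealing PCR-built, transcribed mutant libraries of each subunit of a heterodimeric triplet polymerase ribozyme with a biotinylated primer, the partner subunit and triplets, then incubating them frozen at −7 °C. After Illumina sequencing of inputs and outputs, genotypes needed ≥10 input reads and ≥1 read per output. Fitness is the base-2 logarithm of genotype enrichment over wild-type enrichment, using inverse-variance-weighted replicate averages.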

| Variant | polymerase ribozyme fitness (log ratio) |
| --- | --- |
| GACCAAUCUGCCCUCAGAGCUCGAGAACAUCUUCGGAUGCAGAGGAGGCAGGCUUCGGUGGCGCAAUAGCGCCAACGUCCUCAACCUCCAAUGCAUCCCACCACAUGAUGAUGCCUUAAGAGCCUUGGUUUUUUG [G65A G117U] | -6.21 |
| GACCAAUCUGCCCUCAGAGCUCGAGAACUUCUUCGGAUGCAGAAGAGGCAGGCUUCGGUGGCGCGAUAGCGCCAACGUCCUCAACCUCCAAUGCAUCCCAUCACAUGAUGAUGCCUGAAGAGCCUUGGUUUUUUG [A29U G44A C101U] | -4.87 |
| GACCAAUUUGCCCUCAGAGCUCGAGAACAUCUUCGGAUGCAGAGGAGGCAGGAUUCGGUGGCGCGAUAGCGCCAACGUCCUCAACCUCCAAUGCAUCCCACCACAUGAUGAUGCCUAAAGAGCCUUGGUGUUUUG [C8U C53A G117A U130G] | -0.499 |
| GACCAAUCUGUCCUCAGAGCUCGAGAACAUCUUCGGAUGCAGAGGAGGCAGGCGUCGGUGUCGCGAUAGCGCCAACGUCCUCAACCUCCAAUGCAUCCCACCACAAGAUGAUCACUGAAGAGCCUUGGUUUUUUG [C11U U54G G61U U106A G113C C114A] | -6.66 |
| GACCAAUCUGCCCUCAGAGCUCGAGAACAUCUUCGGAUGCAGAGGAGGCAGGCUUCGGUGGCGCGAUAGCGCCAUCGUCCUCAACCUCCAAUGCAUCCUACCACAUGAUGAUGCCUGAAUAGCCUUGGUUUUUUG [A75U C99U G120U] | -4.3 |
| GACCAAUGUGCCCUCAGAGCUCGAGAACAUCUUCGGAUGCAGAGGACGCAGGCUUCGGUAGCGCGAUAGCGCCAACGUCCUCAACCUCCAAUGCAUCCCACCACAUGAUGAUGCCUGAAGAGCCUUGGUUUUUUG [C8G G47C G60A] | -1.03 |
| GACCAAUCUGCCCUCAGAGCUCGAGAACAUCUUCGGAUGCAGAGUAGGCAGGCUUCGGUGGCGCGAUAGCGCCAACGUCCACAACCUCCAAUGCAUCCCACCACAUGAUGAUGCCUGAAGAGCCUUGGUUUUUUG [G45U U81A] | -3.03 |
| GACCAAUCUGCCCUCAGAGCUCGAGAACAUCUUCGGAUGCAGAGGAGGCCGGCUUCGGUGGCGCGAUAGCGCCAACGUCCUCAACCUCCAAUGCAUCCCACCACAUGAUGAUGCCUGAAGAGGCUUGGUUUUUUG [A50C C123G] | 0.334 |
| GACCAAUCUGCUCUCAGAGCUCGAGUAUAUCUUCGGAUGCAGAGGAGGCAGGCUUCGGUGGCGCGAUAGCGUCAACGUCCUCAACCUCCAAUGCAUCCCACCACAUGAUGAUGCCUGAAGAGGCUUGGUUUUUUG [C12U A26U C28U C72U C123G] | -5.39 |
| GUCCACUCUGCCCUCAGAGCUCGAGAACAUCUUCGGAUGCAGAGGAGGCAGGCUUCGGUGGCGCGAUAGCGCCAAAGUCCUCAACCUCCAAUGCAUCCCACCACAUGAUGAUGCUUGAAGAGCCUAGGCAUUAUG [A2U A6C C76A C115U U126A U129C U130A U133A] | -4.89 |
| GACCAAUCUGCCGUCAGAGCUCGAGAACAUCUUCGGAUGCAGAGGAGGCAGGCUUCGGUGGCGCGAUAGCGCCAACGUCCUCAACCUCCAAUACAUCCCACCACAUGAUGAUCCCUGUAGAGCCUUGGUUUUUUG [C13G G93A G113C A118U] | -5.1 |
| GACCAAUCUGCCCUCAGAGCUCGAGAACAUCUUCGGUUGCAGAGGAGGCAGGCUUCGGUGGCGCGAUAGCGCCAACGUCCUCAACCUCCAAUGCAUCCCACCACAUGAUGAUGCCUAAAGAGCCUUGGUUUUUUG [A37U G117A] | -1.4 |
| GACCAAUCUGCCCUCAGAGCUCGAGAACAUCUUCGGAUGCAGAGGAGGCAGGCUUCGGUGGCACGAUAGCGCCAACGUCCUCAACCUCCAAUCCAUCCCACCACAUGAUGAUUCCUGAAGAGCCUUGGUUUUUUA [G63A G93C G113U G135A] | -4.37 |
| GACCAAGCUGCUCUCAGAGCUCGAGAACAUCUUCGGGUGCAGGGGAGGCAGGCUUCGGUGACGCGAUAGCGCCAACGUCCUCAACCUCCACUGCAUCCCACCACAUGAUGAUGCCUGAAGAGCCUUGGUUUUUUG [U7G C12U A37G A43G G61A A91C] | -0.427 |
| GACCAAUCUGCCCUCAGAGCUCGAGAACAUCUUCGGAUGCAGAGGAGGCAGGCUUCGGUGACGCGAUAGCGCCAACGUCCUCAACCUCCAAUGUAUCCCACCACAUGAUGAUGCCUGAAGAGCCUUGGUUUUUUG [G61A C94U] | -0.0774 |
| GACCAAUCUGCCCUCAGAGCUCGAGAACAUCUUCGGAUGCUGAGGAGGCAGGCUUCGGUGGCACGAUAGCGCCAACGUCCUCAACCUCCAAUGCAUCCCAACACAUGAUGAUACCUGUAGAGCCUUGGUUUUUUG [A41U G63A C101A G113A A118U] | -4.42 |
| GACCAAUCUGCCCUCAGAGCUCGAGAACAUCUUCGGAUGCAGAGGAGGCAGGCUUCGGUGGCGCGAUAGCGCCAACGUCCUCAACAUCCAAUGCAUCCCACCACAUGAUGAUGCCUGAAGAGCCUUGGUUUUUUG [C86A] | -0.461 |
| GACCAAUCUGCCCUCAGAGCUCGAGAACAUCUUCGGAUGCAGAGGAGGCAGGCUUCGGUGGCGCGAUAGCGCCAACGCCCUCUACCUCCAAUGCAUCCCACCACAUGAUGAUGCCUCAUGAGCCUUGGUUUUUUG [U78C A83U G117C A119U] | -3.98 |
| GACCAAUCUGCCCUCAGAGCUCGAGAACAUCUUCGGAUGCAGAGGAGGCAGGCUUCGGUGGCGCGAUAGCGCUAACGUCCUCAACCUCCAAUGCAUCCCACCACAUGUUGAUGCCUGAAGAGCCUUGGUUUUUUG [C73U A108U] | -5.75 |
| GACCAAUCUGCCCUCAGAGCUCGAGAACAUCUUCGGAUGCAGAGGAGGCAGGCUUCGGUGGCGCGAUAGCGCCAACGUCCUCAACCUCCAAUGCAUCCUACCACAUGAUGAUGCCUGAUGAGCCUUGGUAUUUUG [C99U A119U U130A] | -3.7 |
| GACCAAUCUGCCCUCAGAGCUCGAGAACAUCUUCGGAUGCAGAGGAGGCAGGCUUCGGAGGCGCGAUAGCGCCAACGUCCUGAACCUCCAAUGCAUCCCACCACAUGAUGAUGCCUGAAGAGCCUUGGUUUUUUG [U59A C82G] | -0.809 |

From the RNAGym collection of RNA variant scans (doi:10.1073/pnas.2313332121)
